Test: label from the status in PepcDB records

| Sequence | protein production |
| --- | --- |
| MVRIRWFFIRHAESEANVVERWRIAGRSEAARLTERGERQARVVGEAVAIRLEQVLRVDGGDAGGVSGDAGRRRVLAPVAFTSPLLRARQTAALVLEQVAQPVKLEPVDDLAEVYQGLWEDALRSEVHTPETLQAMARNPYEFRAPGGEAQADVERRVLRAVSRMSQRVLSLLSLELEENEQTDVIVLVFTHGYVCKCLIRSVLDASPHLTGQIQVDNGALVELWLEPAAQQGALTSAAELGMWTVLRINDTWGQLTASMR | failed |
| MVRKALLFVIDVALTYFAGVVALFSRFGFDFQEMSRYDESVIVYTVISAVVYILNGNYSIVWEYANARDFLILIRGSVISYLSNLAFFYVYRGIVLPRSVGFAVFLGSMVLLVLSRITWQWMIVNGRGKVPGEKRILIIGAGDAGVSILEEFEKHPHLGKIVAFVDDSPRKIGRKVRGVPVFGPIEKTMEFVEKMNVDEIVIAIPSASRAEMERILKSIDLKKVRVKTLPSVRELIEGRVRISHLKEISIEDLLGREEVKVDFHEIGKFLKGKKILVTGAGGSIGSELCKQIARMNPAEIFLLGHGETSIYLINEFLTEHFPEVKKKRIIADVADRKIMEHWLTQLRPDVIFHVAAHKHVPLMEENPLEAFRVNVLGTMNLVELSERLGVKYFVFISTDKAVNPTSVMGLTKRIAELYILSREKNSTNFSIVRFGNVLGSRGSVVEKFRRQIEKGGPVTVTDPRMKRYFMSIPEAVSLILQSLLFSSGKDLFILDMGEQIPILKLAETMIMLSGYTPYQDIKIVFTGIRPGEKMYEELLYPYEVKELTPHSKIFRVKTSVLPGKESVEQAINRMKEAFENSDVKGLLTEMKKLVPEAQINVGSDN | failed |
| MVRLEDYGTWDEALKRLEASRKALLALLREADPAWLSAPLREGAWTPLMVAEHVALVEDSTARVLRRLRRLAAGENLPPVPVKPGEFKDGKPQAPEGVRPKGGLSLEEVLALLDRARAFLLEEVAKADPQNPATFPHPFFGELNPLGWLRAAAYHEAHHLKALQASLPR | not failed |
| MVRLFGPLVGLFFAVALLWSFGNGAYVAITEPAAPTAESVFHKHPKELDLASNGAFGRFDKQQLQRGFQVYKEVCATCHSLKQIAFRDLAALGYSEAEVKAIAKGWPTKAATFNPVTGDRGERDNIPSDRIPAVYYAGQGVPPDLSLMTKARHDGGAYVYSLLTGYAEQPAELLKQFPDAKTPDGLHYNPYFANLNLAMPAPLTTDGQVTYSDGTKASVDQMAKDVSAFLVWTAEPKLDKRKQTGWAVLGFLLVATVLAYLAKKNVWADKH | failed |
| MVRMQTKAVMVFKLDEEGNAFYTQDIGDLYIFISRSEPFCVPASSFPGMFSNFVELLDVNENVTVDLSDYSMNGGFGYFGAPAHIPPQKLD | failed |
| MVRPYGIKVNKRKEREERYDKEEDEVEEQPKFEQKQKARESSKKAKKESTSRAEEDNDEEEVTVEATAAAEDIVGGIPIVLNAPNKEKSGIVFVLEKASLEVAKVGKTYQLLNSDDHANFLKKNNRNPADYRPDITHQALLMILDSPVNKAGRLKAVYVRTEKGVLFEVKPHVRIPRTFKRFAGIMLQLLQKLSITAVNSREKLLRCVKNPIEEHHLPVNSHRIGFSHSSEKLVNMQKHLATVCDDDRDTVFVVGAMAHGKIDCNYIDEFVSVSEYPLSAAYCISRICEALATNWNII | failed |
| MVRRKKLLSGVLLLSGMLCTGRVMAQQWLYKQAAVPIEYRVKDLLGRMTIEEKVGQLCCPLGWEMYTKTGKNEVTVSELYKKKMAEAPVGSFWAVLRADPWTQKTLETGLSPELSAKALNALQKYAVEETRLGIPVLFAEECPHGHMAIGTTVFPTALSAASTWNEGLMLKMGEAIALEARLQGANIGYGPVLDVAREPRWSRMEETFGEDPVLTTIMGVAMMKGMQGKVQNDGKHLYATLKHFAAYGVPESGHNGSRANCGMRQLLSEYLPPFRKAVKEGAGTLMTSYNAIDGVPCTANKELLTDVLRNQWGFKGFVYSDLISIEGIVGMRAAKDNKEAAVKALKAGLDMDLGGNAFGKNLKKAYEEGLITMADLDRAVGNVLRLKFQMGLFENPYVSPELAKKLVHSKEHKELARQVAREGVVLLKNEGVLPLSKHIGHLAVIGPNADEMYNQLGDYTAPQVREEVATVLDGIRAAVSESTRVTYVKGCAVRDTTATDIPAAVAAAQKADAVVLVVGGSSARDFKTKYISTGAATVSEDAKTLPDMDCGEGFDRSSLRLLGDQEKLISAVASTGKPLVVVYIQGRTMNMNLAAEKAQALLTAWYPGEQGGMGIADILFGDYSPAGRLPVSVPRSEGQLPVFYSQGTQRDYVESKGTPLYAFGYGLSYTRFTYSGLELQKGTEMETLQTVACTVTNTGNRDGEEVVQLYIGDKVASVSQPPLLLKAFQRIFLKKGESRQVIFHLKKDDLGIYDSEMNYVVEPGEFKVMVGAASNDIRLEGEFVL | failed |
| MVSAFNTGRTDDVDEYIHPDYLNPATLEHGIHTGPKAFAQLVGWVRATFSEEARLEEVRIEERGPWVKAYLVLYGRHVGRLVGMPPTDRRFSGEQVHLMRIVDGKIRDHRDWPDFQGTLRQLGDPWPDDEGWRP | not failed |
| MVSRLEHPAGGYKKVFESCEELAEPIPAHVSGKIPAWLSGSLLRMGPGLFEIGDEPFNHLFDGQALIHKFDLKDGRVTYHRKFIRTDAYVRAMTEKRVVITELGTAAYPDPCKNIFSRFFTYFQGTEVTDNCSVNIYPIGEDFYACTETNFITKVNPDTLETIKKVDLCNYLSVNGLTAHPHIEADGTVYNIGNCFGKNMSLAYNIVKIPPLQEEKSDPLAMSKVLVQFPSSERFKPSYVHSFGMTENHFVFVETPVKINLLKFLTSWSIRGSNYMDCFESNDRMGTWFHLAAKNPGKYINNPSQ | failed |
| MVTDADYRELRGATETPREAVVVGLAGEVGLTSAEIPRVRPCDVAPHDHDGVTHYFLAVPGADGGSDRDAYLPPAVERDIRRRADAAGLADDDPLVDVSARRVQTLVNAVAGRTDTAGLDGVAAQDLRSFFARRLLTGAGVDPRVVAAVGGWSRLASLDQYAAVDALEHHHHHH | failed |
| MVTGIVFHEEYLKHEQSPTHPERRERLAYTMDQLREEGIFESERIVLLEPFKASLEDVLEVHTEEYVRFLEMESKKGGIIDFDTNIPVGVFDRALLAAGGAIRAAQAVLNKECENAFAMIRPPGHHAKPYIGAGFCYLNNMAIMVKWLLKQGFERIAILDWDAHHGDGTQEIFYNDDRVLFISTHQMPLYPGTGYPEECGTGKGEGYTVNIPLPPGTGDEGYMMVIDEIIEPVVNEFKPQFIAISAGQDNHFTDPITSLALTARGYAEMMRRAVAMAEKHCDGRLVAVLEGGYSVEGALPYTNLGIIAAMAGFDLSAIREPENYLPELLWRKRDSALVKLKHNIEDVKRVHSKYWKCFK | failed |
| MVTLQAFQPLIDTVQGSLLLASPDDGHIYCANQLACILLASPHSELLKSSVYDFLPDKNEAYTICRELAGNNMIYNRGMQLSTSTGRIFDVQLSARRISLDQVPLLVVSFSDRTETKVLGQLLDFERQLVERSLSIVKTLKEEGRQNDDEDKLTGVVGMHRLMSSAHSETSRAKRYGGSLSGLALELVNVPEMVPREDDGSAYGHLIRLAGSLCLQSSRDSDLVARRSANTFVILLPHTAIGGANEMGRRLIKSLRQLTFLYQGTEHQAAACVGISALRPEESSPTPMLERLEEALKKARDGGANYIIQLP | failed |
| MVTNKLITLLPDLATFIVVVNEGSFTAAAKKLGVTPSALSKLITRLENALSVKLFERTTRSLLITESGKKIYQQSVIMVEAAQQAVDISSSEHTVPSGSLTVAAPKAFLTIVLQPLITPFLTKYPKIQLKLRASDGDIDMIAQGIDVVFRLTDKPTEGLVMKEIGKVNLSLCASPTYLEERGIPHLPQELANHDCLFLGETTTDHIWEFVKGTESHVIAVSGRYAVNHSQMRLNGVKDGFGIGIFPDFVIKEALANNEVISVLSDWQIKGNYHGVIAMQYAQNKYIPSRLKVFTEFVKENLMKSKVNDERT | not failed |
| MVTPFPEVSEWLCIGQIVGAHGLRGEVKVKPFSDFPERFTVPGCRWLRSPRQPQPYAVTLLRGRFLPRAEQFVVTFAEISDRTAAEALKGAEILVPASDRPPLAANEYHLMDLIGLAVYHQGERVGEVVGLVNAGNDLLEVQLLDPAPKAPQSVYIPFVPAIVPVVDLAARRIEIDPPLGLLPLEHHHHHH | failed |
| MVTREEFVARFGGVFEHSPFIAERAYDAGGAGLELTAKAVHGALCAQFRVASEAERLGVLRAHPDLAGKLAIAGELTADSRNEQAGAGLDRLSPQEHARFTQLNSAYTEKFGFPFIIAVKGLNRHDILSAFDTRIDNNAAQEFATATGQVEKIAWLRLASMLPEG | not failed |
| MVVNTLGRYFARRFVIASLGVFFGLFVLLVFVDYVDLLRRAGGLAVSAFYVAQASFCRVPQLLERLLPFCILIGGMTCYLALSRSLELVVARAAGLSAWEFISPALWSAIAIGIFATTVFNPLSAHMQERAKQMEAEMFGENTGGLQDANGFWMNQVSPDGQAIINAARSQQQGAVLTGITVFRFEPDFQFKDRIEAREAVLEPGHWLLKNVRRYTMDGAPVDQDTLELPTSLTLAQVRNSFATPESVSFWQLPTYIKSSENSGFATAGYRLQYHKLLAKPFLLAAMVMLAASVSLRFFRFGGVQKMVLSGVAAGFLLYILSKVTEDLSKAELMHPLAAAWLPVCVGGLAGFLALLYQEDG | failed |
| MVVSTDQAHSLGDVLGIAVPPTGQGDPVRVLAYDPEAGGGFLDALALDTLALLEGRWLHVVETLDRRFPGSELSSIAPEELCALPGIQEVLGLHAVGELAAARRWDRIVVDCASTADALRMLTLPATFGLYVERAWPRHRRLSIGADDGRSAVLAELLERIRASVERLSTLLTDGALVSAHLVLTPERVVAAEAVRTLGSLALMGVRVEELLVNQLLVQDENYEYRSLPDHPAFHWYAERIGEQRAVLDDLDATIGDVALVLVPHLAGEPIGPKALGGLLDSARRRQGSAPPGPLQPIVDLESGSGLASIYRLRLALPQLDPGTLTLGRADDDLIVSAGGMRRRVRLASVLRRCTVLDAHLRGGELTVRFRPNPEVWPT | failed |
| MVVVMNPEQIYGVSNIKSHIPVMLDIEESNYDAWRELFLTHCLSFDVMGHIDGTLLPTNANDVNWQKRDGIVKLSLYGTLTPKQFQGSFVTSSTSRDIWLRIKNQFRNNKDARALRLDSELRTKDIGDMRVADYYRKMKKLADSLRNVDVPVTDRNLVMYVLNGLNPKFDNIINVIKHRQPFPSFDDAATMLQEEEDRLKRAIKPNPTHVDHSSSSTVLACSEAPPVTNFQRSGGNQMGYRGRGRGNNIFRGRGGRFSYYNMPTFNSWNRPPFYQNSYQMWNHPWGYPPYVNTNGGNGLGLLGPRPAY | failed |
| MVWLWCVLHLLVAALGTWGLRRYALHRRLLDHPGERRSHVVATPRGGGMAIVAAILLGCVAACALWPTSRLTVCWFAAGLVAVAGVGWWDDHRPLSARLRFSIHLAASVALGALVWHGTGSVWDGVLTAAASVMLINVWNFMDGINGLASTQAALAALGFSLVAPVGWSWAGLAVAAACLGFVPFNFPRARIFMGDGGSGALGYVLAALLALNVAGGQVSWWISWLPLTAFLVDAGFTLLARMLSGQRWWEPHAQHVYQRLARRLETHVPVTGVYFAFSLIAVCLYLLIRHDPFWLQVSGALVWGMGATAIWHFLRDGLRNS | failed |
| MVYELVYELVYAKIYTNKRIPIREDPCMARTTRPLTHTEVQKAKATDKDLTLHDGDGLFLLVKTTGKKIWRFRYQVPGTSKRTMISLGAYPALSLADAREVRSEKLAILVKGIDPQARAGEEAEKLQIAQESIFVNVARKWFELKQSHVSADHAKDIWRSIEKDILPSIENVPIQELKARTLIQVLEPIKARGALETVRRLVQRINEIMIYAVNVGLIEANPASGIGNAFERPKKQHMPIIRPEELPKLMRTISMSNLSIPTRCLLEWQLLTLIRPAEASATAWSEIDIENKQWCIPAERMKAKRDHIVPLSEQALELLEIMRPISGNRQYVFPSRNDPRKPMNSQTANAALKRIGYSGKLVAHGLRSIASTAMNEAGFNADVIEAALAHSDKNEVRRAYNRSTYLTQRVELLGWWGEFVNRTQVI | failed |

From a protein production outcome set (Wang et al. 2014)
